{
  "source": "paper PMC5573325",
  "key": {"[1]": {"target": "integrin αIIbβ3 (human (endogenous in platelets)) (UniProt P08514)", "sequence (P08514 32-1039, chain 1 of 2)": "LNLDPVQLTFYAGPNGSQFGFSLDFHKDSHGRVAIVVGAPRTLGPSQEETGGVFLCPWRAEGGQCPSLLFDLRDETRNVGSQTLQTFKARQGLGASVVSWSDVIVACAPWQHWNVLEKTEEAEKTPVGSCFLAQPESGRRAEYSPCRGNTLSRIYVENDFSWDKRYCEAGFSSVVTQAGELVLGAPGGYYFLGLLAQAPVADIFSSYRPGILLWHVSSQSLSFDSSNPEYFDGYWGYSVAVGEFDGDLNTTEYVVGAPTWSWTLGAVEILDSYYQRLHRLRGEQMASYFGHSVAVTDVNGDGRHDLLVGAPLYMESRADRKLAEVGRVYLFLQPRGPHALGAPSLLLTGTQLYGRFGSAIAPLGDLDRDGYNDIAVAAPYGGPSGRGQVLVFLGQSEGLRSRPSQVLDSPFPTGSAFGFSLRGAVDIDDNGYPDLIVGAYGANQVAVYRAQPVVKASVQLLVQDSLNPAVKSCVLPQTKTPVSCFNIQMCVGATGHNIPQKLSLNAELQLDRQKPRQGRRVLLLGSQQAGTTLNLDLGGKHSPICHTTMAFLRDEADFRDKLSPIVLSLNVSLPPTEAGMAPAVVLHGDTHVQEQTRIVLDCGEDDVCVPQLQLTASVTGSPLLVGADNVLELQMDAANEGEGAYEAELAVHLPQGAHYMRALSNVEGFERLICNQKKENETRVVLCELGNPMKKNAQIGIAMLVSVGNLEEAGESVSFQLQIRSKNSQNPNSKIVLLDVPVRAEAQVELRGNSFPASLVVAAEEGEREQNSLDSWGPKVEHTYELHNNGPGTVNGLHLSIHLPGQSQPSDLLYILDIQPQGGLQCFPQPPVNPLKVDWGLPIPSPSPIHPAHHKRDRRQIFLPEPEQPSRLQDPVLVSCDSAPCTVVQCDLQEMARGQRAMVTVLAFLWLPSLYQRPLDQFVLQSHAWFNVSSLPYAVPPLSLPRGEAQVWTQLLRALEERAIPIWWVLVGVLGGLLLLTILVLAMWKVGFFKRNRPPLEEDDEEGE", "sequence (P05106 27-788, chain 2 of 2, further chain)": "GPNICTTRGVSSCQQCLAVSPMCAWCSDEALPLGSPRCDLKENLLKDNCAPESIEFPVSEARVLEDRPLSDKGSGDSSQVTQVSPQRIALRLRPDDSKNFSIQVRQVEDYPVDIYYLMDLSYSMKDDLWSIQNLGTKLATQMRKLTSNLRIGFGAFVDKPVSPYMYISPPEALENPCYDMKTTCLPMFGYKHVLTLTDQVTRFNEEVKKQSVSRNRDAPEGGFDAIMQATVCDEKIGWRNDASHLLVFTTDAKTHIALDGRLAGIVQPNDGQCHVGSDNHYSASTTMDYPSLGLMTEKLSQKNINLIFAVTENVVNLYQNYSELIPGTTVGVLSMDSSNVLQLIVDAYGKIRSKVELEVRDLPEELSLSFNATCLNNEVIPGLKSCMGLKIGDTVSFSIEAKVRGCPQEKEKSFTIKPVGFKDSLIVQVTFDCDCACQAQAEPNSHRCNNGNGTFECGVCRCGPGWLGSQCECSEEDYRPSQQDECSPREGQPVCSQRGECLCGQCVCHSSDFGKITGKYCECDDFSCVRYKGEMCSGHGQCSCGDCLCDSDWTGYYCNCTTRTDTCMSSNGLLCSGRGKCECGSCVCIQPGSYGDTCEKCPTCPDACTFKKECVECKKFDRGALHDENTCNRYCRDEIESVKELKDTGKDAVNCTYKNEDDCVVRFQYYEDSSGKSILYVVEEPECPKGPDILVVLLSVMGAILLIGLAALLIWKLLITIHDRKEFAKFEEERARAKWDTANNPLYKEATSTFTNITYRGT", "experiment": "flow cytometry on cells; FITC-triflavin (2 µg/ml) added to resting washed human platelets treated with 0.3 µM TQ-6"}, "[2]": {"target": "integrin αIIbβ3 (human (endogenous in platelets)) (UniProt P08514)", "experiment": "flow cytometry on cells; FITC-triflavin (2 µg/ml) added to resting washed human platelets treated with 0.5 µM TQ-6"}, "[3]": {"target": "integrin αIIbβ3 (human (endogenous in platelets)) (UniProt P08514)", "experiment": "flow cytometry on cells; FITC-triflavin (2 µg/ml) added to resting washed human platelets (3.6 × 10^8 cells/ml) in Tyrode's solution, 3 min; no additive (positive control)"}},
  "data": [
    {"substance": "triflavin (natural protein)", "values": [
      {"measurement": "relative fluorescence intensity", "setting": "[1]", "value": 1260},
      {"measurement": "relative fluorescence intensity", "setting": "[2]", "value": 1220},
      {"measurement": "relative fluorescence intensity", "setting": "[3]", "value": 1150}
    ]}
  ]
}
